Where two headings read alike, the source gives them in different places.
B1: Panx[263-541], subunit of recombinant SFiNX (domain or fragment)
chain: ASSQNESSKERKLRDTELDYVPVRPDEHFIRPIKFSNLIERRPPQVEFNTVNLSKADKRSLAVARAELVLEQIQQKANKEEPPEFHMVDTICKLPVNESFRNQDCFENPSPICNNMNVVYKFNSTPGTRIDLSKWGLETVPEATKRLLRLLGIDVARLKELQSTVKPSQRILKLKKEQLEQGLAPTEEQETATLYKNAATQTERRTATRDAGTQVRLESKLNGAFWQNPHFDPMNLTQHQSNVMLALQEIYQTLPSATMAVKLSRALAPALAIIKGRQP
B2: Drosophila melanogaster LC8 (residues 1-89), co-expressed with Panx peptides (natural protein)
chain: MSDRKAVIKNADMSEEMQQDAVDCATQALEKYNIEKDIAAYIKKEFDKKYNPTWHCIVGRNFGSYVTHETRHFIYFYLGQVAILLFKSG
B3: His6-LC8, subunit of recombinant SFiNX (natural protein)
chain: B2 chain
B4: recombinant SFiNX consisting of Panx[263-541], Nxf2[541-841], Nxt1, and LC8 (complex)
chain 1: B1 chain
chain 2: LPSEYVRAVKEVFPQLTTLDGVDLQTNPGQSLQKNFLCDTGAYELVGAFLENYLREFENDEFRHNLYKYYSENSIFTLTCNYNVVQNHQTPKILQRLSKYNRHARNLRNKDYSKASDGVFFGCTYIVEILLQLPRVTHDFHSLQTDVMHYNGKGAVIYVAGLLRDEPPSTRNGHGSKTDIGGVLLGFSRQFVVTFDEANLGLGKRARRLKIANERLHITNPSKTAIRNAFSVNFPDPSERQAEEDSLDVKDHKLLLFQEVTGLISTWVTSIVEEADWDFERALKLFIQKNADHEIPDLAFA
chain 3: […]
chain 4: B2 chain
B5: Nxf2[541-841], subunit of recombinant SFiNX (domain or fragment)
chain: B4 chain 2

Key:
[1] = biological target: B2; test: SEC-MALS
[2] = biological target: Drosophila melanogaster LC8 (residues 1-89), expressed in isolation for ITC (Drosophila melanogaster, UniProt Q24117 1-89); test: ITC
[3] = biological target: B5; test: SEC-MALS
SEC-MALS [4] = biological target: the molecule itself; test: SEC-MALS
[5] = biological target: B1; test: SEC-MALS
SEC-MALS [6] = biological target: the molecule itself; test: SEC-MALS; remark: listed apart in the source
[7] = biological target: Nxt1, subunit of recombinant SFiNX (Drosophila, UniProt Q9V3H8 1-133); test: SEC-MALS

Binder: TLYKNAATQTER [Panx peptide residues 455-466 (Panx1), LC8 binding site #1]
- stoichiometry N [1]: 2 Panx peptides per one LC8 homodimer
- Kd [2]: ~75 nM

Binder: RTATRDAGTQVRLE [Panx peptide residues 467-480 (Panx2), LC8 binding site #2]
- stoichiometry N [1]: 2 Panx peptides per one LC8 homodimer
- Kd [2]: ~140 nM

Binder: B1
- binding result [3]: binds

Binder: B2
- stoichiometry N (SEC-MALS [4]): 2

Binder: B3
- binding result [5]: binds

Binder: B4
- stoichiometry N (SEC-MALS [6]): 2

Binder: B5
- binding result [7]: binds

Binder: TLYKNAATQTERRTATRDAGTQVRLE [Panx peptide residues 455-480 (Panx1+2), both LC8 binding sites]
- stoichiometry N [1]: 2 Panx peptides per two LC8 homodimers
